Measurements published in article PMC4906247, “Death-Associated Protein Kinase Activity Is Regulated by Coupled Calcium/Calmodulin Binding to Two Distinct Sites” (Structure(London, England:1993), 2016).

B1: human death-associated protein kinase 1, catalytic domain and most of the autoregulatory domain (hDAPK1 CD + ARD, residues 1-312) (domain or fragment, UniProt P53355 1-312, looked up)
chain: MTVFRQENVDDYYDTGEELGSGQFAVVKKCREKSTGLQYAAKFIKKRRTKSSRRGVSREDIEREVSILKEIQHPNVITLHEVYENKTDVILILELVAGGELFDFLAEKESLTEEEATEFLKQILNGVYYLHSLQIAHFDLKPENIMLLDRNVPKPRIKIIDFGLAHKIDFGNEFKNIFGTPEFVAPEIVNYEPLGLEADMWSIGVITYILLSGASPFLGDTKQETLANVSAVNYEFEDEYFSNTSALAKDFIRRLLVKDPKKRMTIQDSLQHPWIKPKDTQQALSRKASAVNMEKFKKFAARKKWKQSVRLI
notes: death-associated protein kinase 1, human, CD and most of the ARD, residues 1-312; Dimer in the crystal; also called hDAPK1 CD + ARD construct (1-312); source: E. coli BL21(DE3), purified (Ni-NTA, TEV cleavage, SEC); not shown: His6, N-terminal, cleaved
B2: human death-associated protein kinase 3, catalytic domain (hDAPK3 CD, residues 1-274) (domain or fragment, UniProt O43293 1-274, looked up)
chain: MSTFRQEDVEDHYEMGEELGSGQFAIVRKCRQKGTGKEYAAKFIKKRRLSSSRRGVSREEIEREVNILREIRHPNIITLHDIFENKTDVVLILELVSGGELFDFLAEKESLTEDEATQFLKQILDGVHYLHSKRIAHFDLKPENIMLLDKNVPNPRIKLIDFGIAHKIEAGNEFKNIFGTPEFVAPEIVNYEPLGLEADMWSIGVITYILLSGASPFLGETKQETLTNISAVNYDFDEEYFSNTSELAKDFIRRLLVKDPKRRMTIAQSLEHSW
notes: death-associated protein kinase 3, human, CD, residues 1-274; Dimer in the crystal; also called hDAPK3 CD construct; source: E. coli Rosetta (DE3) pLysS, purified (glutathione Sepharose, TEV cleavage, SEC); not shown: GST, N-terminal, cleaved

Target: the molecule itself
Assay: crystal structure; hDAPK1 CD + ARD (2.0 Å), hDAPK2 CD + ARD (1.47 Å) and hDAPK3 CD (3.1 Å) crystallised by vapor diffusion; homodimers in the crystals

| Protein | binding result |
| --- | --- |
| B1 | binds |
| B2 | binds |
